Laboratory results published in patent publication US20260116960A1 (SHANGHAI HONGCHENG BIOPHARMACEUTICAL, published 2026).

How the values were obtained:
[1] = molecular target: T1, human CTLA-4 on the cell surface (human, UniProt P16410 36-223); assay: flow cytometry, CHO-hCTLA-4 cells, batch FACS#4
T1 construct: whole, on cells; also called CHO-hCTLA-4 cells; CHOK1-hCTLA4 cells

[2] = molecular target: T2, human VEGF165-his protein (Acro, Catalog No. VE5-H5248) (human, UniProt P15692-4 27-191); assay: competitive ELISA, VEGF165-His coated, biotin-human KDR
T2 construct: Bought protein; also called hVEGF165-His; VEGFA; not shown: his tag

[3] = molecular target: T3, hCTLA4-mFc (DIMA BIOTECH, Catalog No. PME100017) (human, UniProt P16410 36-161, limits assumed); assay: flow cytometry: antibody titrated on 293T-hPD-1 cells, then mixture of biotin-hVEGF165 and hCTLA4-mFc; AF647 anti-mIgG signal; CTLA-4 signal after binding to cell surface PD-1
T3 construct: Bought protein; also called human CTLA-4 mouse Fc fusion; not shown: mouse Fc (mFc)
Protocol: (§1) 200 μL/well of the cells were added to a 96-well U-bottom plate. After centrifugation at 300 g for 5 minutes, the supernatant was discarded and 100 μL of antibody solution serially diluted with FACS buffer was added to each well in triplicate (with starting concentration of 200 nM, 3-fold serial dilution, and the same volume of FACS buffer was used as a negative control). Mixed well and incubated at 4° C. for 60 min. After washing the plate three times with FACS buffer, a mixture consisting of 1 μg/mL Biotin-hVEGF165 and 1 μg/mL hCTLA4-mFc (DIMA BIOTECH, Catalog No.: PME100017) in a 1:1 volume ratio was added to each well at 100 μL/well to detect the simultaneously binding activity of the trispecific antibodies to CTLA-4 and VEGF after binding to cell surface PD-1. […] After washing the plate three times with FACS buffer, 100 μL/well of PBS solution was added to resuspend the cells, and the fluorescence signal was detected on a flow cytometer (BECKMAN COULTER cytoFLEX). The binding activity was fitted using a four-parameter model, and the EC₅₀ value of each antibody was calculated.

[4] = molecular target: T1, human CTLA-4 on the cell surface; assay: flow cytometry competition, CHO-hCTLA-4 cells, biotin-human CD80
Protocol: CHO-hCTLA-4 cells were obtained by trypsin digestion, washed twice with PBS containing 2% FBS (FACS buffer), and resuspended in FACS buffer. 200 μL of the cells were added to a 96-well U-bottom plate, approximately 2×10⁵ cells/well. After centrifugation at 300 g for 5 minutes, the supernatant was discarded. […] After washing three times with FACS buffer, 100 μL/well of 1:800 diluted PE Streptavidin was added and incubated at 4° C. for 50 min. After washing three times with FACS buffer, 150 μL/well of PBS was added to resuspend the cells, and the fluorescence signal was detected on a flow cytometer (BECKMAN COULTER cytoFLEX). The four-parameter model was used to fit the binding activity and the IC₅₀ value of the blocking activity of each antibody was calculated.

[5] = molecular target: T4, human PD-1 on the cell surface (human, UniProt Q15116 25-288); assay: flow cytometry, 293T-hPD-1 cells, batch FACS#2
T4 construct: whole, on cells; also called cell surface PD-1
Protocol: After centrifugation at 300 g for 5 minutes, the supernatant was discarded. The antibodies were serially diluted 3-fold with FACS buffer to obtain two gradient series solution FACS #1 and FACS #2, with the starting concentration of 200 nM (Table 5, FACS #1) or 100 nM (Table 5, FACS #2, FIG. 2), respectively. Then 100 μL/well was added to a 96-well plate in triplicate, mixed, and incubated at 4° C. for 60 min. The plate was centrifuged and washed three times with FACS buffer. 100 μL/well of 1:800 diluted AF647-anti-hIgG(H+L) (Jackson, Catalog No.: 109-605-003) was added and incubated at 4° C. for 50 minutes. After washing the plate three times with FACS buffer, 100 μL/well of FACS buffer was added to resuspend the cells, and the fluorescence signal was detected on a flow cytometer (BECKMAN COULTER cytoFLEX). The binding activity was fitted using a four-parameter model to calculate the EC₅₀ value of each antibody binding to PD-1.

[6] = molecular target: T5, Biotinylated Human VEGF165 (Acro, Catalog No. VE5-H82Q0) (human, UniProt P15692-4 27-191, biotinylated (site not stated)); assay: flow cytometry: antibody titrated on 293T-hPD-1 cells, then mixture of biotin-hVEGF165 and hCTLA4-mFc; PE streptavidin signal; VEGF signal after binding to cell surface PD-1
T5 construct: Bought protein; also called Biotinylated-hVEGF165; Biotin-hVEGF165
Protocol: as §1

T1 sequence (P16410 36-223): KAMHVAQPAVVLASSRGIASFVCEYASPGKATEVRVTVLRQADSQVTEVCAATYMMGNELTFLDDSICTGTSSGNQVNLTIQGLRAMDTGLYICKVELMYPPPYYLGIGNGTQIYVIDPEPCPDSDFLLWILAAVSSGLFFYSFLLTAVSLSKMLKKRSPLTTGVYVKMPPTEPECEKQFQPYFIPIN
T2 sequence (P15692 other isoform, or with tags, fused parts or gaps limits assumed): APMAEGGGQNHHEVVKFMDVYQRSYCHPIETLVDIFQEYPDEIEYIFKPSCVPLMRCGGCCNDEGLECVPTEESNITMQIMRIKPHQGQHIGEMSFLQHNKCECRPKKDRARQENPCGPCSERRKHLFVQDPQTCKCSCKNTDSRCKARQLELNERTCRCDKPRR
T5 sequence (P15692 other isoform, or with tags, fused parts or gaps limits assumed): as above
T4 sequence (Q15116 25-288): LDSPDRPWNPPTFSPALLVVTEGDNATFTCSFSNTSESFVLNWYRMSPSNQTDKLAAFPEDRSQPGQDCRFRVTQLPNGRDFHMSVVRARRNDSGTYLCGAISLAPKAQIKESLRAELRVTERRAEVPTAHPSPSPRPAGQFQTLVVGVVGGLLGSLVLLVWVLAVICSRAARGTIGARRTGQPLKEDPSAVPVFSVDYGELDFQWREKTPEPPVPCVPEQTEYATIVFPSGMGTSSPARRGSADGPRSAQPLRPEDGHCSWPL
T3 sequence (P16410 36-161 limits assumed): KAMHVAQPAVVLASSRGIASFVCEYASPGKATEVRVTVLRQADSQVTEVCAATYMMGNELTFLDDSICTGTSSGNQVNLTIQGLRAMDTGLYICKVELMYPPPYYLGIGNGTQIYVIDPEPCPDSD

B1: HC010-F10 (trispecific antibody, human IgG4 S228P, kappa)
heavy: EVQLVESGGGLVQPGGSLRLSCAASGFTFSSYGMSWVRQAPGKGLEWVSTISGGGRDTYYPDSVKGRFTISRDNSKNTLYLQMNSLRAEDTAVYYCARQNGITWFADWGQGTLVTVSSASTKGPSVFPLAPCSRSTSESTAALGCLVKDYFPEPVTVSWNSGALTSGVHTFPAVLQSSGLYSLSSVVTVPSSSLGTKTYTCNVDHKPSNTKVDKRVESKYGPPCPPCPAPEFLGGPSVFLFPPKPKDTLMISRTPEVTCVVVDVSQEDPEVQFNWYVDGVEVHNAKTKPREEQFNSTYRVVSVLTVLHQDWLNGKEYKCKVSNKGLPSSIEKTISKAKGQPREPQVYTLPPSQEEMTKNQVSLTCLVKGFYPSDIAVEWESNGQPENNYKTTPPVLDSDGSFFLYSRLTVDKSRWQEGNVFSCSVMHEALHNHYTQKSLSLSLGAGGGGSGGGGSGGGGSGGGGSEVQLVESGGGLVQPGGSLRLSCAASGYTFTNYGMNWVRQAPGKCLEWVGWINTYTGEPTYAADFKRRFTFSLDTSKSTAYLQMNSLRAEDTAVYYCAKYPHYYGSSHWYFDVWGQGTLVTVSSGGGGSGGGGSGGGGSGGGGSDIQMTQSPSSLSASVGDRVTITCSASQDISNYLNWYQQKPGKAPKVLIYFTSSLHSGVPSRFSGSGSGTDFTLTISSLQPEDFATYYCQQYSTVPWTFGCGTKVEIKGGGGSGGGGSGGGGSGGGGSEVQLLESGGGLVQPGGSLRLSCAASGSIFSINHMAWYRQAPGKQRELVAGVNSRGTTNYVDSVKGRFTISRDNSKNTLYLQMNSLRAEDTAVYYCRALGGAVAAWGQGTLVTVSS
light: DIQMTQSPSSLSASVGDRVTITCRASESVDNYGISFMNWYQQKPGKAPKLLIYAASNQGSGVPSRFSGSGSGTDFTLTISSLQPEDFATYYCQQSKEVPWTFGGGTKVEIKRTVAAPSVFIFPPSDEQLKSGTASVVCLLNNFYPREAKVQWKVDNALQSGNSQESVTEQDSKDSTYSLSSTLTLSKADYEKHKVYACEVTHQGLSSPVTKSFNRGEC
notes: light: CQ1-3/1-11 VL-kappa; also called H010-F10
EC50 [1]: 4.86 nM
IC50 [2]: 6.76 nM
EC50 [3]: 3.32 nM
IC50 [4]: 22.6 nM
EC50 [5]: 2.37 nM
EC50 [6]: 2.83 nM
